# Reference: the supplement of paper PMC9112550, “Optimization of the antimicrobial peptide Bac7 by deep mutational scanning” (BMC Biology, 2022)
# Test system: Escherichia coli TOP10
# Test: shrunken log2 fold change of peptide-encoding DNA abundance (4.5 h post-induction vs induction); higher = less antimicrobial activity (less host growth inhibition)
# Conditions: time post-induction: 4.5 h; library: site-saturation at positions 5, 18, 19, 20
# 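Also: peptides expressed intracellularly from a pBAD plasmid library in pooled LB shake-flask culture, induced with 0.3% L-arabinose, DNA abundance read by NGS, three biological replicates, DESeq2 with apeglm shrinkage.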
row,Sequence,shrunken log2 fold change
1,RRIRNRPPRLPRPRPRPERSPRP,0.129
2,RRIRNRPPRLPRPRPRPESTPRP,-0.0329
3,RRIRNRPPRLPRPRPRPEVGPRP,0.662
4,RRIRNRPPRLPRPRPRPEWIPRP,-0.16
5,RRIRNRPPRLPRPRPRPEWMPRP,0.066
6,RRIRNRPPRLPRPRPRPEWRPRP,0.404
7,RRIRNRPPRLPRPRPRPEWVPRP,0.0314
8,RRIRNRPPRLPRPRPRPEYWPRP,-0.103
9,RRIRNRPPRLPRPRPRPFFCPRP,0.118
10,RRIRNRPPRLPRPRPRPFFDPRP,-0.0739
11,RRIRNRPPRLPRPRPRPFHCPRP,-0.536
12,RRIRNRPPRLPRPRPRPFHKPRP,-0.107
13,RRIRNRPPRLPRPRPRPFHTPRP,-0.232
14,RRIRNRPPRLPRPRPRPFIFPRP,-0.373
15,RRIRNRPPRLPRPRPRPFIIPRP,-0.41
16,RRIRNRPPRLPRPRPRPFILPRP,-0.634
17,RRIRNRPPRLPRPRPRPFKVPRP,0.0253
18,RRIRNRPPRLPRPRPRPFLCPRP,-0.966
19,RRIRNRPPRLPRPRPRPFLYPRP,-0.468
20,RRIRNRPPRLPRPRPRPFMIPRP,-0.294
21,RRIRNRPPRLPRPRPRPFMNPRP,-0.195
22,RRIRNRPPRLPRPRPRPFNQPRP,-0.408
23,RRIRNRPPRLPRPRPRPFNVPRP,0.109
24,RRIRNRPPRLPRPRPRPFPIPRP,-0.132
25,RRIRNRPPRLPRPRPRPFPYPRP,-0.4

row,Sequence,shrunken log2 fold change
1,RRIRNRPPRLPRPRPRPFQCPRP,-0.0493
2,RRIRNRPPRLPRPRPRPFQNPRP,-0.0271
3,RRIRNRPPRLPRPRPRPFSEPRP,-0.0347
4,RRIRNRPPRLPRPRPRPFVNPRP,-0.0775
5,RRIRNRPPRLPRPRPRPFYIPRP,-0.51
6,RRIRNRPPRLPRPRPRPGAWPRP,0.0927
7,RRIRNRPPRLPRPRPRPGCEPRP,0.212
8,RRIRNRPPRLPRPRPRPGEHPRP,0.00902
9,RRIRNRPPRLPRPRPRPGFNPRP,-0.207
10,RRIRNRPPRLPRPRPRPGGCPRP,0.203
11,RRIRNRPPRLPRPRPRPGHIPRP,-0.433
12,RRIRNRPPRLPRPRPRPGHQPRP,-0.0155
13,RRIRNRPPRLPRPRPRPGILPRP,-0.337
14,RRIRNRPPRLPRPRPRPGKWPRP,-0.0427
15,RRIRNRPPRLPRPRPRPGLGPRP,0.611
16,RRIRNRPPRLPRPRPRPGLKPRP,0.265
17,RRIRNRPPRLPRPRPRPGLMPRP,0.235
18,RRIRNRPPRLPRPRPRPGLPPRP,0.028
19,RRIRNRPPRLPRPRPRPGMAPRP,0.0313
20,RRIRNRPPRLPRPRPRPGMFPRP,-0.252
21,RRIRNRPPRLPRPRPRPGMHPRP,-0.015
22,RRIRNRPPRLPRPRPRPGNAPRP,0.0258
23,RRIRNRPPRLPRPRPRPGNSPRP,-0.0208
24,RRIRNRPPRLPRPRPRPGQDPRP,-0.0269
25,RRIRNRPPRLPRPRPRPGQKPRP,-0.000842

row,Sequence,shrunken log2 fold change
1,RRIRNRPPRLPRPRPRPGQLPRP,-0.126
2,RRIRNRPPRLPRPRPRPGRKPRP,0.132
3,RRIRNRPPRLPRPRPRPGRSPRP,0.17
4,RRIRNRPPRLPRPRPRPGTAPRP,-0.0363
5,RRIRNRPPRLPRPRPRPGTDPRP,-0.0425
6,RRIRNRPPRLPRPRPRPGVWPRP,0.474
7,RRIRNRPPRLPRPRPRPGWAPRP,0.135
8,RRIRNRPPRLPRPRPRPGWGPRP,0.492
9,RRIRNRPPRLPRPRPRPGWMPRP,0.142
10,RRIRNRPPRLPRPRPRPGWQPRP,0.116
11,RRIRNRPPRLPRPRPRPGWWPRP,-0.0419
12,RRIRNRPPRLPRPRPRPHARPRP,0.187
13,RRIRNRPPRLPRPRPRPHCFPRP,-0.641
14,RRIRNRPPRLPRPRPRPHCGPRP,-0.225
15,RRIRNRPPRLPRPRPRPHCKPRP,-0.249
16,RRIRNRPPRLPRPRPRPHDIPRP,-0.0337
17,RRIRNRPPRLPRPRPRPHFVPRP,-0.0954
18,RRIRNRPPRLPRPRPRPHGCPRP,-0.0193
19,RRIRNRPPRLPRPRPRPHGVPRP,0.0154
20,RRIRNRPPRLPRPRPRPHHGPRP,-0.00683
21,RRIRNRPPRLPRPRPRPHHPPRP,-0.398
22,RRIRNRPPRLPRPRPRPHHVPRP,-0.0011
23,RRIRNRPPRLPRPRPRPHKPPRP,-0.368
24,RRIRNRPPRLPRPRPRPHLFPRP,-0.0208
25,RRIRNRPPRLPRPRPRPHNEPRP,-0.509

row,Sequence,shrunken log2 fold change
1,RRIRNRPPRLPRPRPRPHNMPRP,-1.06
2,RRIRNRPPRLPRPRPRPHNNPRP,-1.05
3,RRIRNRPPRLPRPRPRPHPEPRP,0.00649
4,RRIRNRPPRLPRPRPRPHPVPRP,-0.269
5,RRIRNRPPRLPRPRPRPHQDPRP,-0.297
6,RRIRNRPPRLPRPRPRPHQMPRP,-0.114
7,RRIRNRPPRLPRPRPRPHQNPRP,-0.239
8,RRIRNRPPRLPRPRPRPHSKPRP,-0.117
9,RRIRNRPPRLPRPRPRPHVNPRP,-0.237
10,RRIRNRPPRLPRPRPRPHWHPRP,-0.65
11,RRIRNRPPRLPRPRPRPHWRPRP,0.201
12,RRIRNRPPRLPRPRPRPHYIPRP,-0.842
13,RRIRNRPPRLPRPRPRPHYKPRP,-0.333
14,RRIRNRPPRLPRPRPRPIANPRP,0.000407
15,RRIRNRPPRLPRPRPRPIARPRP,-0.0163
16,RRIRNRPPRLPRPRPRPICRPRP,-0.0024
17,RRIRNRPPRLPRPRPRPICWPRP,-0.0674
18,RRIRNRPPRLPRPRPRPIDGPRP,-0.00962
19,RRIRNRPPRLPRPRPRPIDTPRP,-0.0154
20,RRIRNRPPRLPRPRPRPIEFPRP,-0.235
21,RRIRNRPPRLPRPRPRPIFHPRP,-0.358
22,RRIRNRPPRLPRPRPRPIFTPRP,-0.424
23,RRIRNRPPRLPRPRPRPIGWPRP,0.115
24,RRIRNRPPRLPRPRPRPIIGPRP,0.0444
25,RRIRNRPPRLPRPRPRPIISPRP,0.0108

row,Sequence,shrunken log2 fold change
1,RRIRNRPPRLPRPRPRPIKFPRP,-0.165
2,RRIRNRPPRLPRPRPRPILAPRP,-0.264
3,RRIRNRPPRLPRPRPRPILIPRP,-0.37
4,RRIRNRPPRLPRPRPRPILVPRP,-0.0115
5,RRIRNRPPRLPRPRPRPINNPRP,-0.652
6,RRIRNRPPRLPRPRPRPINSPRP,-0.208
7,RRIRNRPPRLPRPRPRPINYPRP,-0.262
8,RRIRNRPPRLPRPRPRPISGPRP,-0.0579
9,RRIRNRPPRLPRPRPRPISHPRP,-0.963
10,RRIRNRPPRLPRPRPRPIVAPRP,-0.367
11,RRIRNRPPRLPRPRPRPIYFPRP,-0.767
12,RRIRNRPPRLPRPRPRPKAWPRP,0.133
13,RRIRNRPPRLPRPRPRPKCAPRP,0.243
14,RRIRNRPPRLPRPRPRPKDKPRP,-0.112
15,RRIRNRPPRLPRPRPRPKDMPRP,-0.0164
16,RRIRNRPPRLPRPRPRPKEDPRP,0.0361
17,RRIRNRPPRLPRPRPRPKGWPRP,0.439
18,RRIRNRPPRLPRPRPRPKILPRP,0.0428
19,RRIRNRPPRLPRPRPRPKLMPRP,-0.109
20,RRIRNRPPRLPRPRPRPKMAPRP,-0.00757
21,RRIRNRPPRLPRPRPRPKMFPRP,-0.00426
22,RRIRNRPPRLPRPRPRPKNRPRP,0.0314
23,RRIRNRPPRLPRPRPRPKPGPRP,0.235
24,RRIRNRPPRLPRPRPRPKPIPRP,0.202
25,RRIRNRPPRLPRPRPRPKPKPRP,0.211

row,Sequence,shrunken log2 fold change
1,RRIRNRPPRLPRPRPRPKPWPRP,0.217
2,RRIRNRPPRLPRPRPRPKRQPRP,-0.0692
3,RRIRNRPPRLPRPRPRPKSAPRP,0.265
4,RRIRNRPPRLPRPRPRPKSQPRP,0.0119
5,RRIRNRPPRLPRPRPRPKSRPRP,-0.0139
6,RRIRNRPPRLPRPRPRPKTDPRP,-0.206
7,RRIRNRPPRLPRPRPRPKVCPRP,-0.0345
8,RRIRNRPPRLPRPRPRPKVNPRP,0.0323
9,RRIRNRPPRLPRPRPRPKVWPRP,0.68
10,RRIRNRPPRLPRPRPRPKWIPRP,0.0111
11,RRIRNRPPRLPRPRPRPKYHPRP,-0.442
12,RRIRNRPPRLPRPRPRPLANPRP,0.142
13,RRIRNRPPRLPRPRPRPLCNPRP,-0.324
14,RRIRNRPPRLPRPRPRPLEMPRP,-0.0434
15,RRIRNRPPRLPRPRPRPLGEPRP,-0.0638
16,RRIRNRPPRLPRPRPRPLGLPRP,-0.0325
17,RRIRNRPPRLPRPRPRPLGVPRP,0.129
18,RRIRNRPPRLPRPRPRPLIWPRP,0.0774
19,RRIRNRPPRLPRPRPRPLKIPRP,-0.233
20,RRIRNRPPRLPRPRPRPLLAPRP,0.253
21,RRIRNRPPRLPRPRPRPLLCPRP,0.0225
22,RRIRNRPPRLPRPRPRPLMFPRP,-0.947
23,RRIRNRPPRLPRPRPRPLNSPRP,-0.162
24,RRIRNRPPRLPRPRPRPLPQPRP,0.229
25,RRIRNRPPRLPRPRPRPLPVPRP,0.437
